Measurements taken from US20050123549A1.

Legend:
[1] = biological target: Muc1 mucin carrying the CA6 sialoglycotope (human) (UniProt P15941); test: flow cytometry on KB cells
[2] = biological target: Muc1 on DS6 negative & CM1 positive cell lines (KLE, OVCAR3, SKOV3), without the CA6 epitope (human) (UniProt P15941); test: flow cytometry on KLE cells
[3] = biological target: Muc1 mucin carrying the CA6 sialoglycotope (human) (UniProt P15941); test: flow cytometry on HeLa cells
[4] = biological target: Muc1 mucin carrying the CA6 sialoglycotope (human) (UniProt P15941); test: flow cytometry on MCF7 cells
[5] = biological target: Muc1 mucin carrying the CA6 sialoglycotope (human) (UniProt P15941); test: flow cytometry on BT549 cells
[6] = biological target: Muc1 mucin carrying the CA6 sialoglycotope (human) (UniProt P15941); test: flow cytometry on CaOV3 cells
[7] = biological target: Muc1 on DS6 negative & CM1 positive cell lines (KLE, OVCAR3, SKOV3), without the CA6 epitope (human) (UniProt P15941); test: flow cytometry on SKOV3 cells
[8] = biological target: Muc1 on DS6 negative & CM1 positive cell lines (KLE, OVCAR3, SKOV3), without the CA6 epitope (human) (UniProt P15941); test: flow cytometry on OVCAR3 cells
[9] = biological target: Muc1 mucin carrying the CA6 sialoglycotope (human) (UniProt P15941); test: flow cytometry on KB cells, apparent Kd
[10] = biological target: Muc1 on DS6 negative & CM1 positive cell lines (KLE, OVCAR3, SKOV3), without the CA6 epitope (human) (UniProt P15941); test: flow cytometry on KLE cells, apparent Kd
[11] = biological target: Muc1 mucin carrying the CA6 sialoglycotope (human) (UniProt P15941); test: flow cytometry on HeLa cells, apparent Kd
[12] = biological target: Muc1 mucin carrying the CA6 sialoglycotope (human) (UniProt P15941); test: flow cytometry on MCF7 cells, apparent Kd
[13] = biological target: Muc1 mucin carrying the CA6 sialoglycotope (human) (UniProt P15941); test: flow cytometry on BT549 cells, apparent Kd
[14] = biological target: Muc1 mucin carrying the CA6 sialoglycotope (human) (UniProt P15941); test: flow cytometry on CaOV3 cells, apparent Kd
[15] = biological target: Muc1 on DS6 negative & CM1 positive cell lines (KLE, OVCAR3, SKOV3), without the CA6 epitope (human) (UniProt P15941); test: flow cytometry on SKOV3 cells, apparent Kd
[16] = biological target: Muc1 on DS6 negative & CM1 positive cell lines (KLE, OVCAR3, SKOV3), without the CA6 epitope (human) (UniProt P15941); test: flow cytometry on OVCAR3 cells, apparent Kd

MMF (maximum mean relative fluorescence) [1]: 338
MMF (maximum mean relative fluorescence) [2]: 562
MMF (maximum mean relative fluorescence) [3]: 335
MMF (maximum mean relative fluorescence) [4]: 1020
MMF (maximum mean relative fluorescence) [5]: 188
MMF (maximum mean relative fluorescence) [6]: 1030
MMF (maximum mean relative fluorescence) [7]: 49.4
MMF (maximum mean relative fluorescence) [8]: 192
Kd [9]: 5.34 nM
Kd [10]: 8.16 nM
Kd [11]: 2.91 nM
Kd [12]: 8.69 nM
Kd [13]: 6.06 nM
Kd [14]: 7.48 nM
Kd [15]: 6.25 nM
Kd [16]: 5.95 nM
Substance: CM1 antibody (Muc1 VNTR antibody)
